± gives the uncertainty stated by the source.
Experiment: amyloid nucleation score (Sup35N fusion, yeast selection) (log enrichment); library NNK1; higher = more nucleation; inactive = no reads after selection
How it was run: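 The nucleation score equals the log enrichment of output over input reads from DiMSum, centred on the mode score of non-aggregating sequences. It was computed only for sequences with 100 or more input reads. The reads came from Illumina sequencing of plasmid inserts from psi-negative yeast expressing Sup35N fused to peptides of 20 random codons, induced with 100 μM copper sulfate for 24 hours and grown 7 days at 30°C without adenine and uracil.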
Substance GVPYR has an amyloid nucleation score of 0.044 ± 0.68.
In the case of GVRCRLLRIPFVSISRSGWR, the amyloid nucleation score is reported as 0.743 ± 0.58.
For GVTMVISPPYVMAGRSDMFL, the amyloid nucleation score was -0.031 ± 0.65.
For GVVGNTHQVPNRGRRSRFLL, the amyloid nucleation score was -1.54 ± 1.7.
For GVWDGKRSYGSLQSWAFVPE, the amyloid nucleation score was -0.138 ± 0.41.
With GVWVGIICKINLKYAFR the amyloid nucleation score was 1.23 ± 0.34.
Substance GWTCYLSVGRIRF has an amyloid nucleation score of 1.94 ± 0.11.
In the case of GWTTYPSNN, the amyloid nucleation score is reported as 0.996 ± 0.37.
Substance GYACYFSSSDYCWVAPHCGL has an amyloid nucleation score of 1.01 ± 0.14.
Work on GYASAVVHHVGWNPTVGSLM yielded an amyloid nucleation score of -0.115 ± 0.42.
For GYCVLVTLLGNTNEYPAGCP, the amyloid nucleation score was 0.563 ± 0.41.
For GYEDRRSRCSIWVVRFLNVL, the amyloid nucleation score was -0.605 ± 0.8.
For GYEEFGVGRTSVPMETARLK, the amyloid nucleation score was -0.406 ± 0.44.
Substance GYFCGMDLCTKEGLTHYEY has an amyloid nucleation score of -0.736 ± 0.72.
For GYFVSMSTDYSLSWRYICSA, the amyloid nucleation score was -1.16 ± 0.67.
Work on GYFVYYFLFIYCVFRVFSTL yielded an amyloid nucleation score of 4.82 ± 0.12.
With GYHDGISMFSCVYSCYQSVS the amyloid nucleation score was 5.92 ± 0.061.
GYLLCAG showed an amyloid nucleation score of 0.549 ± 0.71.
In the case of GYMCLSL, the amyloid nucleation score is reported as 0.395 ± 0.29.
GYNFKRVSNFSVYGLVSYSN showed an amyloid nucleation score of 0.046 ± 1.6.
Substance GYRSIGASGTQDLSQVVLNK has an amyloid nucleation score of 0.901 ± 0.98.
In the case of HAEWGGDAKPTRYRRRNEAG, the amyloid nucleation score is reported as “inactive”.
Work on HAGLQRALTPQIRLFSGLAS yielded an amyloid nucleation score of -0.268 ± 1.4.
With HAKNSRIYSWLFLCSIKWG the amyloid nucleation score was 0.396 ± 0.3.
With HARTSRVRNDSSRAALNARW the amyloid nucleation score was -0.392 ± 0.36.
Substance HCMGRACPHS has an amyloid nucleation score of 5.11 ± 0.11.
HCRPFFSVEINKCLSC gave an amyloid nucleation score of 5.15 ± 0.1.
Substance HCSSFNILRMNDNE has an amyloid nucleation score of 0.398 ± 0.23.
Substance HDLHFFHGVAARQNVRRAYR has an amyloid nucleation score of 0.724 ± 1.
HDLTWVSTSESFFSLMGHAS showed an amyloid nucleation score of -0.28 ± 0.29.
HDLVKVFSFCVWP showed an amyloid nucleation score of 3.02 ± 0.19.
With HDQSYSHSGSNGFRQKNEAN the amyloid nucleation score was 1.32 ± 0.5.
With HDSAELDSRYNSASCVSLWL the amyloid nucleation score was -0.213 ± 1.1.
Work on HDSTGHGEYVVGPEPFFPCA yielded an amyloid nucleation score of 0.024 ± 0.4.
HESLWKFESSFADKNRTVWN gave an amyloid nucleation score of 1.32 ± 0.45.
With HEYDLDKGTS the amyloid nucleation score was “inactive”.
In the case of HFPSHLVLRETERFKQLHCG, the amyloid nucleation score is reported as 0.374 ± 0.62.
In the case of HFSFLSVDKRHWAFGPLCRK, the amyloid nucleation score is reported as 7.358 ± 0.073.
For HFVGMMMKSGGFARLTYNKG, the amyloid nucleation score was 0.443 ± 0.45.
HGINET showed an amyloid nucleation score of 0.357 ± 0.48.
In the case of HGKYQGTDRYAETGSISGGT, the amyloid nucleation score is reported as -0.395 ± 0.37.
HGPHYLLITGRGTRDNQSRD showed an amyloid nucleation score of -0.721 ± 0.65.
With HHIDPHDSFIS the amyloid nucleation score was 0.711 ± 0.93.
With HHKTFV the amyloid nucleation score was “inactive”.
With HHLDPGQTHEIVSCSTWFTF the amyloid nucleation score was -0.397 ± 0.29.
Work on HILGPLIRSMMIFSCLVSVV yielded an amyloid nucleation score of 1.29 ± 0.36.
For HIRLAQ, the amyloid nucleation score was 0.157 ± 0.76.
HISGLPVWLSCSWFWPKRLL gave an amyloid nucleation score of 0.08 ± 0.32.
In the case of HIVQRCFHVIYCSRVFYVLY, the amyloid nucleation score is reported as 0.386 ± 0.53.
For HKCVLELFSLIFLGGYFFLR, the amyloid nucleation score was 0.041 ± 0.45.
Work on HKNSTVKSVWQDLMSDVDVD yielded an amyloid nucleation score of -0.028 ± 0.43.
For HLFRYSGTTSAV, the amyloid nucleation score was 0.386 ± 0.53.
For HLINLSDEIQYSYCNKRMVS, the amyloid nucleation score was “inactive”.
Work on HLLNMNSDLRTHCYVVWT yielded an amyloid nucleation score of -0.264 ± 0.25.
In the case of HLLWETSMQRLMSHIFTSSR, the amyloid nucleation score is reported as 0.022 ± 0.43.
In the case of HLMDSSYGSGSGCSTKTSCV, the amyloid nucleation score is reported as 0.061 ± 0.28.
Substance HLSLGINVPTCFLSEKALLV has an amyloid nucleation score of 1.25 ± 0.68.
Work on HLVGWESR yielded an amyloid nucleation score of 0.476 ± 0.79.
Work on HLVRLTFVMLFGGNLWISS yielded an amyloid nucleation score of 0.91 ± 0.26.
For HMLWNNVRIF, the amyloid nucleation score was 0.09 ± 0.6.
Work on HNCTTGVTFKSEIASILVQP yielded an amyloid nucleation score of -0.261 ± 0.4.
In the case of HNGDCMITACNTGVLAGYIS, the amyloid nucleation score is reported as 1.88 ± 0.26.
Substance HNHADATQKKCGVQ has an amyloid nucleation score of -0.112 ± 0.28.

Source: the supplement of paper PMC12042874
